This data set deals with the molecule itself. The data set is described as follows: cryo-EM structure; single-particle cryo-EM of 10 µM AcrD in MSP1E3D1 nanodiscs (E. coli total extract lipid; 20 mM Tris-HCl pH 7.5, 100 mM NaCl), no gentamicin; particle ratio of trimer to dimer to monomer approximately 3:5:2.

“And” between values parts separate entries of the source, which are not always exact repeats. Equal entries are not always repeated.

B1: Escherichia coli acriflavine resistance protein D (AcrD) (natural protein)
chain: MANFFIDRPIFAWVLAILLCLTGTLAIFSLPVEQYPDLAPPNVRVTANYPGASAQTLENTVTQVIEQNMTGLDNLMYMSSQSSGTGQASVTLSFKAGTDPDEAVQQVQNQLQSAMRKLPQAVQNQGVTVRKTGDTNILTIAFVSTDGSMDKQDIADYVASNIQDPLSRVNGVGDIDAYGSQYSMRIWLDPAKLNSFQMTAKDVTDAIESQNAQIAVGQLGGTPSVDKQALNATINAQSLLQTPEQFRDITLRVNQDGSEVRLGDVATVEMGAEKYDYLSRFNGKPASGLGVKLASGANEMATAELVLNRLDELAQYFPHGLEYKVAYETTSFVKASIEDVVKTLLEAIALVFLVMYLFLQNFRATLIPTIAVPVVLMGTFSVLYAFGYSVNTLTMFAMVLAIGLLVDDAIVVVENVERIMSEEGLTPREATRKSMGQIQGALVGIAMVLSAVFVPMAFFGGTTGAIYRQFSITIVAAMVLSVLVAMILTPALCATLLKPLKKGEHHGQKGFFAWFNQMFNRNAERYEKGVAKILHRSLRWIVIYVLLLGGMVFLFLRLPTSFLPLEDRGMFTTSVQLPSGSTQQQTLKVVEQIEKYYFTHEKDNIMSVFATVGSGPGGNGQNVARMFIRLKDWSERDSKTGTSFAIIERATKAFNQIKEARVIASSPPAISGLGSSAGFDMELQDHAGAGHDALMAARNQLLALAAENPELTRVRHNGLDDSPQLQIDIDQRKAQALGVAIDDINDTLQTAWGSSYVNDFMDRGRVKKVYVQAAAPYRMLPDDINLWYVRNKDGGMVPFSAFATSRWETGSPRLERYNGYSAVEIVGEAAPGVSTGTAMDIMESLVKQLPNGFGLEWTAMSYQERLSGAQAPALYAISLLVVFLCLAALYESWSVPFSVMLVVPLGVIGALLATWMRGLENDVYFQVGLLTVIGLSAKNAILIVEFANEMNQKGHDLFEATLHACRQRLRPILMTSLAFIFGVLPMATSTGAGSGGQHAVGTGVMGGMISATILAIYFVPLFFVLVRRRFPLKPRPE
notes: AcrD, E. coli, full length; Seen as trimers, dimers and monomers in the same nanodisc sample; The nanodisc scaffold protein MSP1E3D1 (Sigma-Aldrich) is only a tool; also called AcrD aminoglycoside efflux pump; apo-AcrD
Broadly, the stoichiometry N is a count of units in the complex or per binding partner. In the case of B1, the “stoichiometry N” value was 3 and 2.

These data come from article PMC9973356, “Cryo-EM Structures of AcrD Illuminate a Mechanism for Capturing Aminoglycosides from Its Central Cavity” (mBio, 2023).
